No end group written: not given here. 0P linker = not defined here

These results are taken from patent US20080166364A1 (COVX TECHNOLOGY IRELAND, published 2008).

Assay [1] addresses T1, human angiopoietin-2 protein (human, UniProt O15123 19-496).
T1 construct: bought; also called Ang-2; Ang2
T1 sequence (looked up): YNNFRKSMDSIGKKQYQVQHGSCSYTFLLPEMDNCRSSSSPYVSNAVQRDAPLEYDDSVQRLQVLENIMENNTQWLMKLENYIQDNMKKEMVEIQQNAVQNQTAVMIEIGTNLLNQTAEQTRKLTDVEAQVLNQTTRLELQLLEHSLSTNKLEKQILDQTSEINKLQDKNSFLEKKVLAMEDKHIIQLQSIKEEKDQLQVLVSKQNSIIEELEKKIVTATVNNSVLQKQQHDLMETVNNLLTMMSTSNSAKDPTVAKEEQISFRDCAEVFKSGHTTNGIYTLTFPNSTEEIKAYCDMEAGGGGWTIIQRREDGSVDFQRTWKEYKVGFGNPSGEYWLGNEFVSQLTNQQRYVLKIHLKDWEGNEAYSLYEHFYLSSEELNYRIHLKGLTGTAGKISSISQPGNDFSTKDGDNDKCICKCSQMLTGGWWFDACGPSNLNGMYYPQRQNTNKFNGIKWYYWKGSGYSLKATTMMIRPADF
Kind of assay: competition ELISA, coated Ang-2, competitor compound 43-0P-h38c2 10 ng/mL; T form. Here is the method: Recombinant human Ang-2 was coated on microtiter plates at 0.5 μg/mL in 100 μL , overnight at 2-8° C. Plates were washed between all steps and all subsequent incubations occurred at room temperature. Plates were blocked with 250 μL per well of SuperBlock for 1-3 hours. Test compounds were pre-mixed with compound 43 linked to linker (as shown in FIG. 3) and h38c2 AT 10 ng/mL. Peptide mixtures in 100 μL were then added at the listed final concentrations, then plates sealed, and incubated for 1-2 hours. Bound compounds 43 was detected with 100 uL of a 1:20,000 dilution of HRP-labeled anti-human IgG reagent for solution.

The target in assay [2] is T1, human angiopoietin-2 protein. As to the kind of experiment: reverse competitive ELISA, coated Tie-2-Fc, 0.83 nM Ang-2; peptide printed without linker, column headed P. As for the experimental part:
For reverse competition ELISA, human Tie-2-Fc, angiopoietin-2 protein, biotinylated anti-human Ang-2 antibody, and streptavidin HRP (R&D Systems) and TMB substrate from Pierce were used.
High-binding half-well plates were coated with Tie-2-Fc (50 ng/well) in 50 μl PBS and incubated at 4° C. overnight. Plates were washed three times with washing buffer (0.1% Tween 20, PBS, pH 7.4) and blocked with Superblock, 150 μl/well at RT for 1 hour. Plates were washed three times. Following washing, 50 μl of an Ang-2 binding peptide compound (50 nM, 5× serial dilution) in the presence of 50 ng/ml (0.83 nM) Ang-2 in Superblock were added and incubated at RT for 1 hour. Plates were washed 3 times, 50 μl of 1 μg/well biotinylated anti-Ang-2 detection antibody in Superblock was added and incubated at RT for 2 hours. Plates were washed 3 times, and 50 μl of streptavidin HRP (1:200 dilution in Superblock) was added at RT for 20 minutes. Plates were washed 3 times, and 50 μl (25 μl TMB+25 μl H₂O₂) substrate solution was added and incubated for 20-30 minutes. Color development was stopped with 25 μl of 2 M H₂SO₄. OD450 nm with a correction wavelength of 540 nm was measured.

Assay [3] has the same target. Kind of assay: competitive ELISA, coated Ang-2, 0.25 nM hTie-2-Fc; peptide alone. Here is the method:
For competitive ELISA, human angiopoietin-2 protein and Tie-2-Fc (R&D Systems) were reconstituted without carrier protein. Mouse anti-human Tie-2 (Pharmingen) was used as the primary antibody and goat anti-mouse-IgG1-HRP (Pierce) was used as the secondary antibody. TMB substrate from Pierce was used.
High-binding half-well plates were coated with Ang-2 (100 ng/well) in 50 μl PBS and incubated at 4° C. overnight. Plates were washed three times with washing buffer (0.1% Tween 20, PBS, pH 7.4) and blocked with Superblock (Scytek), 100 μl/well at room temperature (“RT”) for 1 hour. After removing the blocking solution, 50 μl of an Ang-2 binding peptide compound (1 uM and 5× serial dilution) in the presence of 0.25 nM hTie-2-Fc using Superblock as diluent was added and incubated at RT for 2 hours. Plates were washed 3 times with washing buffer. Then, 50 ul of 0.1 ug/ml mouse anti-human Tie-2 diluted in Superblock added and incubated at RT for 1 hour. Following incubation, 50 ul of 1:5,000 dilution of goat anti-mouse IgG-HRP in Superblock was then added and incubated at RT for one hour. After washing 3 times, 50 μl (25 μl TMB+25 μl H₂O₂) was added, and incubated for 3-5 minutes. Color development was monitored and stopped with 25 μl of 2 M H₂SO₄. OD450 nm with a correction wavelength of 540 nm was measured.

In turn, QXYQPLDEXDXTLYDQFMLQQG (N-term ac; C-term am; AcK at 2; AcK at 9; 0P linker on K11) [Compound 43(a) (T): targeting peptide plus 0P linker] came in with an IC50 in assay [1] of 139 nM.

B1: Compound 84 (T): targeting peptide plus 0P linker (peptide)
peptide: Ac-QK(Ac)YQPLDEK(Ac)DK(0P linker)TLYDQFMLQ-NH2
modifications: reading uncertain
notes: C-terminal truncation of 43(a) by 2 residues
As for B1, in assay [1], the IC50 came out at 190 nM.

Turning to QKYQPLDELDKTLYDQFMLQQG-NH2 (not fully specified (N-terminus); also: N-term acyl cap, acyl not given here, not conjugated to linker or antibody) [Compound 21: Ang-2 binding peptide alone], the IC50 in assay [2] was found to be 36.4 nM; in assay [3] it was 25.8 nM.

Molecule QNYQPLDELDKTLYDQFMLQQG-NH2 (not fully specified (N-terminus); also: N-term acyl cap, acyl not given here, not conjugated to linker or antibody) [Compound 23: Ang-2 binding peptide alone] returned an IC50 in assay [3] of 27.8 nM.

B2: Compound 83 (T): targeting peptide plus 0P linker (peptide)
peptide: Ac-QK(Ac)YQPLDEK(Ac)DK(0P linker)TLYDQFMLQQ-NH2
modifications: reading uncertain
notes: C-terminal truncation of 43(a) by 1 residue
Turning to B2, in assay [1], the IC50 is 111 nM.

B3: Compound 86 (T): targeting peptide plus 0P linker (peptide)
peptide: Ac-QK(Ac)YQPLDEK(Ac)DK(0P linker)TLYDQFM-NH2
modifications: reading uncertain
notes: C-terminal truncation of 43(a) by 4 residues
In the case of B3, in assay [1], the IC50 was found to be 847 nM.

The molecule QXYQPLDELDKTLYDQFMLQQG (not fully specified; N-term acyl cap; C-term NH2 cap; AcK at 2, not conjugated to linker or antibody) [Compound 22: Ang-2 binding peptide alone] returned an IC50 in assay [2] of 14.4 nM.

B4: Compound 85 (T): targeting peptide plus 0P linker (peptide)
peptide: Ac-QK(Ac)YQPLDEK(Ac)DK(0P linker)TLYDQFML-NH2
modifications: reading uncertain
notes: C-terminal truncation of 43(a) by 3 residues
The molecule B4 gave an IC50 in assay [1] of 444 nM.
